According to US20240166765A1 (ICONIC THERAPEUTICS, published 2024):
Residue numbers refer to the chain shown, from its start. Where two headings read alike, the source gives them in different places. Values belong to the binder of their own block, whether it stands above or below them.

Tests used:
h108-219_r = molecular target: T1, h108-219_r (human/rat chimera); assay: live cell staining, flow cytometry
T1 construct: on HEK293 cells
T1 chain: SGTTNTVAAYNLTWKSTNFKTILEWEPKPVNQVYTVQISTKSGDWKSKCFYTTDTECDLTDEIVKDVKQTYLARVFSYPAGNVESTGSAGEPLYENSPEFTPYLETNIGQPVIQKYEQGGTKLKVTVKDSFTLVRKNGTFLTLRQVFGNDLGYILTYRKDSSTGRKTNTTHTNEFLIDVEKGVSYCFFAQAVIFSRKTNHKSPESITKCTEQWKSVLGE

hTF = molecular target: T2, hTF (human, UniProt P13726 33-251); assay: live cell staining, flow cytometry
T2 construct: also called human TF; human Tissue Factor

rTF (rat TF) [1] = molecular target: T3, rTF (rat TF) (rat, UniProt P42533 29-252); assay: live cell staining, flow cytometry
T3 construct: Expressed on the surface of transfected HEK293 cells

r141-194_h = molecular target: T4, r141-194_h (rat/human chimera, UniProt P42533 29-252); assay: live cell staining, flow cytometry
T4 construct: on HEK293 cells

hTF_K149N = molecular target: T5, hTF_K149N (human, UniProt P13726 33-251); assay: live cell staining, flow cytometry
T5 construct: on HEK293 cells; not shown: transmembrane and cytoplasmic part of the construct expressed on HEK293 cells
T5 chain: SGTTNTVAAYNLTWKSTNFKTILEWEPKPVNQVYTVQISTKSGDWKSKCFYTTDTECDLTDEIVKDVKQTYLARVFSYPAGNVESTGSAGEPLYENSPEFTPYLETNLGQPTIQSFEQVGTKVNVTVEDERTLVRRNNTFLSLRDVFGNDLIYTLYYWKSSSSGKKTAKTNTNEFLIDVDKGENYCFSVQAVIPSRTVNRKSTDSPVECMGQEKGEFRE

hTF_N171H_T197K = molecular target: T6, hTF_N171H_T197K (human, UniProt P13726 33-251); assay: live cell staining, flow cytometry
T6 construct: on HEK293 cells
T6 chain: T5 chain with N149K, N171H, T197K

rTF (rat TF) [2] = molecular target: T3, rTF (rat TF); assay: live cell staining, flow cytometry; remark: listed apart in the source
h1-77_r = molecular target: T7, h1-77_r (human/rat chimera); assay: live cell staining, flow cytometry
T7 construct: Human TF with ECD residues 1-77 replaced by the rat segment; on HEK293 cells

h1-107_r = molecular target: T8, h1-107_r (human/rat chimera); assay: live cell staining, flow cytometry
T8 construct: on HEK293 cells
T8 chain: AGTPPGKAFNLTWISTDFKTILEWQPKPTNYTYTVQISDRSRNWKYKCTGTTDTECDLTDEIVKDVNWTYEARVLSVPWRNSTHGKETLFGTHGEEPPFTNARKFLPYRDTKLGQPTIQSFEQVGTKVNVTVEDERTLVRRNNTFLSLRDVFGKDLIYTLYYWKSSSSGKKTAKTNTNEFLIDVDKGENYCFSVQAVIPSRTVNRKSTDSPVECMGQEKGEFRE

h159-219_r = molecular target: T9, h159-219_r (human/rat chimera); assay: live cell staining, flow cytometry
T9 construct: on HEK293 cells

cynomolgus TF ECD-His6 = molecular target: T10, cynomolgus TF ECD-His6 (cynomolgus monkey (Macaca fascicularis)); assay: BLI (ForteBio Octet)
T10 construct: made in Expi293 cells; also called TF-His; cTF
T10 chain: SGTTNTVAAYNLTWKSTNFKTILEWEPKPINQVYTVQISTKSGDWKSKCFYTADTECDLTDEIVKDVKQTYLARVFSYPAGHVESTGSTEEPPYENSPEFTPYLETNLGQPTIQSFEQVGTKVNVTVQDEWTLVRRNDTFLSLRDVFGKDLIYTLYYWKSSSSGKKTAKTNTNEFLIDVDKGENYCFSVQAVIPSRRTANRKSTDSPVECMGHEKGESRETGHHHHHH

human TF ECD-His6 = molecular target: T11, human TF ECD-His6 (human, UniProt P13726 33-251); assay: BLI (ForteBio Octet)
T11 construct: made in Expi293 cells; the entry holds the ECD with the C-terminal TG-His6; also called TF-His; hTF

pig TF-His [3] = molecular target: T12, pig TF-His (pig (Sus scrofa)); assay: SPR (Biacore), antibody captured by anti-human IgG
T12 construct: also called pig TF ECD-His; pTF
T12 chain: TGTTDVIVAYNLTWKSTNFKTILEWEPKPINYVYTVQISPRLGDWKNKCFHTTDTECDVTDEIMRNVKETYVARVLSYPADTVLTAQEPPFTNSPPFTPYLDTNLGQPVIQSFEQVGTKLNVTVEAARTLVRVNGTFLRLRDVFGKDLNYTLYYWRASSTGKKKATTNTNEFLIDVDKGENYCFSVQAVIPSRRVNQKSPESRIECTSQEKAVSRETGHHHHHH

rabbit TF-His [4] = molecular target: T13, rabbit TF-His (rabbit (Oryctolagus cuniculus), UniProt P24055 33-250); assay: SPR (Biacore), antibody captured by anti-human IgG
T13 construct: also called rabbit TF ECD-His
T13 sequence (P24055 other isoform, or with tags, fused parts or gaps): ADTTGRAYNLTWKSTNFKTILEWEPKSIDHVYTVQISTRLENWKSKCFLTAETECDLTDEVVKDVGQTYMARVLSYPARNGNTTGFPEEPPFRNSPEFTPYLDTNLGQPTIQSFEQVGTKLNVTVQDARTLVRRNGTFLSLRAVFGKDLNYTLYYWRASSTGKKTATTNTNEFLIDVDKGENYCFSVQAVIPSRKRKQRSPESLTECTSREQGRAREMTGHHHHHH

pig TF-His [5] = molecular target: T14, pig TF-His (pig (Sus scrofa)); assay: SPR (Biacore), antibody captured by anti-human IgG on CM5 chip, pig TF-His in solution
T14 construct: also called pig TF ECD-His; pTF
T14 chain: T12 chain

rabbit TF-His [6] = molecular target: T15, rabbit TF-His (rabbit (Oryctolagus cuniculus), UniProt P24055 33-250); assay: SPR (Biacore), antibody captured by anti-human IgG on CM5 chip, rabbit TF-His in solution
T15 construct: also called rabbit TF ECD-His
T15 sequence (P24055 other isoform, or with tags, fused parts or gaps): as above

Percent antibody binding to TF construct relative to hTF (h108-219_r): 0%
B1: 5G9 (antibody, V domains shown)
VH: QVQLVESGGGVVQPGRSLRLSCKASGFNIKDYYMHWVRQAPGKGLEWIGLIDPENGNTIYDPKFQGRFTISADNSKNTLFLQMDSLRPEDTAVYYCARDNSYYFDYWGQGTPVTVSS
VL: DIQMTQSPSSLSASVGDRVTITCKASQDIRKYLNWYQQKPGKAPKLLIYYATSLADGVPSRFSGSGSGTDYTFTISSLQPEDIATYYCLQHGESPYTFGQGTKLEIT
notes: Previously described anti-TF antibody; also called humanized TF8-5G9; CNTO 860

Percent antibody binding to TF construct relative to hTF (hTF): 100% | Percent antibody binding to TF construct relative to hTF (rTF (rat TF) [1]): 0% | Percent antibody binding to TF construct relative to hTF (r141-194_h): 0% | Percent antibody binding to TF construct relative to hTF (hTF_K149N): 131% | Percent antibody binding to TF construct relative to hTF (hTF_N171H_T197K): 94% | Percent antibody binding to TF construct relative to hTF (rTF (rat TF) [2]): 0% | Percent antibody binding to TF construct relative to hTF (h1-77_r): 0% | Percent antibody binding to TF construct relative to hTF (h1-107_r): 0% | Percent antibody binding to TF construct relative to hTF (h159-219_r): 141%
B2: 39A (antibody, human IgG1, V domains shown)
VH: QVQLVQSGAEVKKPGSSVKVSCKASGGTFSSNAIGWVRQAPGQGLEWMGSIIPIIGFANYAQKFQGRVTITADESTSTAYMELSSLRSEDTAVYYCARDSGYYYGASSFGMDVWGQGTTVTVSS
VL: EIVMTQSPATLSVSPGERATLSCRASQSVSSNLAWYQQKPGQAPRLLIYGASTRATGIPARFSGSGSGTEFTLTISSLQSEDFAVYYCEQYNNLPLTFGGGTKVEIK
notes: Human IgG1

Kd (cynomolgus TF ECD-His6): 12 nM | Kd (human TF ECD-His6): 3.3 nM
B3: 29D (antibody, human IgG1, V domains shown)
VH: QVQLVESGGGVVQPGRSLRLSCAASGFTFHSRGMHWVRQAPGKGLEWVAVITYDGINKYYADSVEGRFTISRDNSKNTLYLQMNSLRAEDTAVYYCARDGVYYGVYDYWGQGTLVTVSS
VL: not shown
notes: human IgG1
binding result (pig TF-His [3]): no binding (tested: TF-His titration from 100 nM) | binding result (rabbit TF-His [4]): no binding (tested: TF-His titration from 100 nM)

binding result (pig TF-His [5]): no binding | binding result (rabbit TF-His [6]): no binding
B4: 29D (antibody, human IgG1, V domains shown)
VH: B3 VH
VL: not shown
notes: Human IgG1; also called antibody 29D

Second part, the binder before the results:

B5: 1G (antibody, human IgG1, V domains shown)
VH: EVQLLESGGGLVQPGGSLRLSCAASGFTFSSYAMAWVRQAPGKGLEWVSAISGSGGLTYYADSVKGRFTISRDNSKNTLYLQMNSLRAEDTAVYYCAKAPYGYYMDVWGKGTTVTVSS
VL: not shown
notes: human IgG1
Kd (cynomolgus TF ECD-His6): 2.7 nM | Kd (human TF ECD-His6): 2.2 nM | binding result (pig TF-His [3]): no binding (tested: TF-His titration from 100 nM) | binding result (rabbit TF-His [4]): no binding (tested: TF-His titration from 100 nM)

B6: 1G (antibody, human IgG1, V domains shown)
VH: B5 VH
VL: not shown
notes: Human IgG1; also called antibody 1G
binding result (pig TF-His [5]): no binding | binding result (rabbit TF-His [6]): no binding
